The experiment concerns the target T1, glycoprotein 130 (UniProt P40189 23-619).
T1 construct: gp130 (glycoprotein 130), bought recombinant protein; also called gp130; source: bought: R&D Systems
T1 sequence (looked up): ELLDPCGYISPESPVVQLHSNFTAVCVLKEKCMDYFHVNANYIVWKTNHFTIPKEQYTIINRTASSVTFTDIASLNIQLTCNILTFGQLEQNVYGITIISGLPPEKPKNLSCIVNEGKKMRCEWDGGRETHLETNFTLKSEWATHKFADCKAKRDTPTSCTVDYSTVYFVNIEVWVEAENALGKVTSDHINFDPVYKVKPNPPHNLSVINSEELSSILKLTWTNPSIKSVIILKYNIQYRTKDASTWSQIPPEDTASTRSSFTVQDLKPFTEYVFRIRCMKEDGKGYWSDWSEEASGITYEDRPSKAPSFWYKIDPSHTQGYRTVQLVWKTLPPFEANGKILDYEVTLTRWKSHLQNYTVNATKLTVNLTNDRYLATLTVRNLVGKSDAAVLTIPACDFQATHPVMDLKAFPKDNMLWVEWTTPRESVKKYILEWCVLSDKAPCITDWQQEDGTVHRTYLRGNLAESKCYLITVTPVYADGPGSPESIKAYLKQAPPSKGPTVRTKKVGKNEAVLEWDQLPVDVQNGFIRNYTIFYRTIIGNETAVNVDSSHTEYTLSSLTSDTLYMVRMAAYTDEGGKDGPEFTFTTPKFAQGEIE
As to the kind of experiment: SPR; kinetics; OSM immobilised by EDC/NHS coupling on a carboxyl mixed self-assembled monolayer gold chip (Reichert SR7000), increasing concentrations of gp130 injected; 25 °C; PBS with 0.005% Tween-20; 30 μL/min. The following applies: both partners purified.

B1: Oncostatin M (ligand, human, UniProt P13725 26-221, looked up)
chain: AAIGSCSKEYRVLLGQLQKQTDLMQDTSRLLDPYIRIQGLDVPKLREHCRERPGAFPSEETLRGLGRRGFLQTLNATLGCVLHRLADLEQRLPKAQDLERSGLNIEDLEKLQMARPNILGLRNNIYCMAQLLDNSDTAEPTKAGRGASQPPTPTPASDAFQRKLEGCRFLHGYHRFMHSVGRVFSKWGESPNRSRR
notes: Oncostatin M, human; about 24 kDa; immobilised for SPR; The construct is only 'as previously described'; also called OSM; source: recombinant OSM, 'as previously described'
For B1, binding was characterised by a dissociation constant (Kd) of 20.5 nM.

Usually Kd stands for the free concentration of one partner at which half of the binding sites on the other are occupied at equilibrium, for simple one-to-one binding.

These data come from article PMC12362618, “Development of the First Small-Molecule Inhibitor Targeting Oncostatin M for Treatment of Breast Cancer” (Journal of Medicinal Chemistry, 2025).
